Results as given in patent US12053530B2, “Plectin-1 binding antibodies and uses thereof” (ZIELBIO, INC., priority 2017, dated 2024).

Target: plectin-1 (human recombinant protein) (Homo sapiens, UniProt Q15149)
Assay: Affinity of anti-plectin-1 antibodies (FIGS. 1A-1B)
Type: binding
Conditions: human recombinant protein and pancreatic cell lines
Source text: FIGS. 1A-1B show representative data for affinity and specificity of an anti-plec1 antibody on human recombinant protein (FIG. 1A) and human (YapC and L3.6pl) and mouse (Han14.3) pancreatic cell lines (FIG. 1B).

Sequence of plectin-1 (human recombinant protein) (Q15149 whole entry): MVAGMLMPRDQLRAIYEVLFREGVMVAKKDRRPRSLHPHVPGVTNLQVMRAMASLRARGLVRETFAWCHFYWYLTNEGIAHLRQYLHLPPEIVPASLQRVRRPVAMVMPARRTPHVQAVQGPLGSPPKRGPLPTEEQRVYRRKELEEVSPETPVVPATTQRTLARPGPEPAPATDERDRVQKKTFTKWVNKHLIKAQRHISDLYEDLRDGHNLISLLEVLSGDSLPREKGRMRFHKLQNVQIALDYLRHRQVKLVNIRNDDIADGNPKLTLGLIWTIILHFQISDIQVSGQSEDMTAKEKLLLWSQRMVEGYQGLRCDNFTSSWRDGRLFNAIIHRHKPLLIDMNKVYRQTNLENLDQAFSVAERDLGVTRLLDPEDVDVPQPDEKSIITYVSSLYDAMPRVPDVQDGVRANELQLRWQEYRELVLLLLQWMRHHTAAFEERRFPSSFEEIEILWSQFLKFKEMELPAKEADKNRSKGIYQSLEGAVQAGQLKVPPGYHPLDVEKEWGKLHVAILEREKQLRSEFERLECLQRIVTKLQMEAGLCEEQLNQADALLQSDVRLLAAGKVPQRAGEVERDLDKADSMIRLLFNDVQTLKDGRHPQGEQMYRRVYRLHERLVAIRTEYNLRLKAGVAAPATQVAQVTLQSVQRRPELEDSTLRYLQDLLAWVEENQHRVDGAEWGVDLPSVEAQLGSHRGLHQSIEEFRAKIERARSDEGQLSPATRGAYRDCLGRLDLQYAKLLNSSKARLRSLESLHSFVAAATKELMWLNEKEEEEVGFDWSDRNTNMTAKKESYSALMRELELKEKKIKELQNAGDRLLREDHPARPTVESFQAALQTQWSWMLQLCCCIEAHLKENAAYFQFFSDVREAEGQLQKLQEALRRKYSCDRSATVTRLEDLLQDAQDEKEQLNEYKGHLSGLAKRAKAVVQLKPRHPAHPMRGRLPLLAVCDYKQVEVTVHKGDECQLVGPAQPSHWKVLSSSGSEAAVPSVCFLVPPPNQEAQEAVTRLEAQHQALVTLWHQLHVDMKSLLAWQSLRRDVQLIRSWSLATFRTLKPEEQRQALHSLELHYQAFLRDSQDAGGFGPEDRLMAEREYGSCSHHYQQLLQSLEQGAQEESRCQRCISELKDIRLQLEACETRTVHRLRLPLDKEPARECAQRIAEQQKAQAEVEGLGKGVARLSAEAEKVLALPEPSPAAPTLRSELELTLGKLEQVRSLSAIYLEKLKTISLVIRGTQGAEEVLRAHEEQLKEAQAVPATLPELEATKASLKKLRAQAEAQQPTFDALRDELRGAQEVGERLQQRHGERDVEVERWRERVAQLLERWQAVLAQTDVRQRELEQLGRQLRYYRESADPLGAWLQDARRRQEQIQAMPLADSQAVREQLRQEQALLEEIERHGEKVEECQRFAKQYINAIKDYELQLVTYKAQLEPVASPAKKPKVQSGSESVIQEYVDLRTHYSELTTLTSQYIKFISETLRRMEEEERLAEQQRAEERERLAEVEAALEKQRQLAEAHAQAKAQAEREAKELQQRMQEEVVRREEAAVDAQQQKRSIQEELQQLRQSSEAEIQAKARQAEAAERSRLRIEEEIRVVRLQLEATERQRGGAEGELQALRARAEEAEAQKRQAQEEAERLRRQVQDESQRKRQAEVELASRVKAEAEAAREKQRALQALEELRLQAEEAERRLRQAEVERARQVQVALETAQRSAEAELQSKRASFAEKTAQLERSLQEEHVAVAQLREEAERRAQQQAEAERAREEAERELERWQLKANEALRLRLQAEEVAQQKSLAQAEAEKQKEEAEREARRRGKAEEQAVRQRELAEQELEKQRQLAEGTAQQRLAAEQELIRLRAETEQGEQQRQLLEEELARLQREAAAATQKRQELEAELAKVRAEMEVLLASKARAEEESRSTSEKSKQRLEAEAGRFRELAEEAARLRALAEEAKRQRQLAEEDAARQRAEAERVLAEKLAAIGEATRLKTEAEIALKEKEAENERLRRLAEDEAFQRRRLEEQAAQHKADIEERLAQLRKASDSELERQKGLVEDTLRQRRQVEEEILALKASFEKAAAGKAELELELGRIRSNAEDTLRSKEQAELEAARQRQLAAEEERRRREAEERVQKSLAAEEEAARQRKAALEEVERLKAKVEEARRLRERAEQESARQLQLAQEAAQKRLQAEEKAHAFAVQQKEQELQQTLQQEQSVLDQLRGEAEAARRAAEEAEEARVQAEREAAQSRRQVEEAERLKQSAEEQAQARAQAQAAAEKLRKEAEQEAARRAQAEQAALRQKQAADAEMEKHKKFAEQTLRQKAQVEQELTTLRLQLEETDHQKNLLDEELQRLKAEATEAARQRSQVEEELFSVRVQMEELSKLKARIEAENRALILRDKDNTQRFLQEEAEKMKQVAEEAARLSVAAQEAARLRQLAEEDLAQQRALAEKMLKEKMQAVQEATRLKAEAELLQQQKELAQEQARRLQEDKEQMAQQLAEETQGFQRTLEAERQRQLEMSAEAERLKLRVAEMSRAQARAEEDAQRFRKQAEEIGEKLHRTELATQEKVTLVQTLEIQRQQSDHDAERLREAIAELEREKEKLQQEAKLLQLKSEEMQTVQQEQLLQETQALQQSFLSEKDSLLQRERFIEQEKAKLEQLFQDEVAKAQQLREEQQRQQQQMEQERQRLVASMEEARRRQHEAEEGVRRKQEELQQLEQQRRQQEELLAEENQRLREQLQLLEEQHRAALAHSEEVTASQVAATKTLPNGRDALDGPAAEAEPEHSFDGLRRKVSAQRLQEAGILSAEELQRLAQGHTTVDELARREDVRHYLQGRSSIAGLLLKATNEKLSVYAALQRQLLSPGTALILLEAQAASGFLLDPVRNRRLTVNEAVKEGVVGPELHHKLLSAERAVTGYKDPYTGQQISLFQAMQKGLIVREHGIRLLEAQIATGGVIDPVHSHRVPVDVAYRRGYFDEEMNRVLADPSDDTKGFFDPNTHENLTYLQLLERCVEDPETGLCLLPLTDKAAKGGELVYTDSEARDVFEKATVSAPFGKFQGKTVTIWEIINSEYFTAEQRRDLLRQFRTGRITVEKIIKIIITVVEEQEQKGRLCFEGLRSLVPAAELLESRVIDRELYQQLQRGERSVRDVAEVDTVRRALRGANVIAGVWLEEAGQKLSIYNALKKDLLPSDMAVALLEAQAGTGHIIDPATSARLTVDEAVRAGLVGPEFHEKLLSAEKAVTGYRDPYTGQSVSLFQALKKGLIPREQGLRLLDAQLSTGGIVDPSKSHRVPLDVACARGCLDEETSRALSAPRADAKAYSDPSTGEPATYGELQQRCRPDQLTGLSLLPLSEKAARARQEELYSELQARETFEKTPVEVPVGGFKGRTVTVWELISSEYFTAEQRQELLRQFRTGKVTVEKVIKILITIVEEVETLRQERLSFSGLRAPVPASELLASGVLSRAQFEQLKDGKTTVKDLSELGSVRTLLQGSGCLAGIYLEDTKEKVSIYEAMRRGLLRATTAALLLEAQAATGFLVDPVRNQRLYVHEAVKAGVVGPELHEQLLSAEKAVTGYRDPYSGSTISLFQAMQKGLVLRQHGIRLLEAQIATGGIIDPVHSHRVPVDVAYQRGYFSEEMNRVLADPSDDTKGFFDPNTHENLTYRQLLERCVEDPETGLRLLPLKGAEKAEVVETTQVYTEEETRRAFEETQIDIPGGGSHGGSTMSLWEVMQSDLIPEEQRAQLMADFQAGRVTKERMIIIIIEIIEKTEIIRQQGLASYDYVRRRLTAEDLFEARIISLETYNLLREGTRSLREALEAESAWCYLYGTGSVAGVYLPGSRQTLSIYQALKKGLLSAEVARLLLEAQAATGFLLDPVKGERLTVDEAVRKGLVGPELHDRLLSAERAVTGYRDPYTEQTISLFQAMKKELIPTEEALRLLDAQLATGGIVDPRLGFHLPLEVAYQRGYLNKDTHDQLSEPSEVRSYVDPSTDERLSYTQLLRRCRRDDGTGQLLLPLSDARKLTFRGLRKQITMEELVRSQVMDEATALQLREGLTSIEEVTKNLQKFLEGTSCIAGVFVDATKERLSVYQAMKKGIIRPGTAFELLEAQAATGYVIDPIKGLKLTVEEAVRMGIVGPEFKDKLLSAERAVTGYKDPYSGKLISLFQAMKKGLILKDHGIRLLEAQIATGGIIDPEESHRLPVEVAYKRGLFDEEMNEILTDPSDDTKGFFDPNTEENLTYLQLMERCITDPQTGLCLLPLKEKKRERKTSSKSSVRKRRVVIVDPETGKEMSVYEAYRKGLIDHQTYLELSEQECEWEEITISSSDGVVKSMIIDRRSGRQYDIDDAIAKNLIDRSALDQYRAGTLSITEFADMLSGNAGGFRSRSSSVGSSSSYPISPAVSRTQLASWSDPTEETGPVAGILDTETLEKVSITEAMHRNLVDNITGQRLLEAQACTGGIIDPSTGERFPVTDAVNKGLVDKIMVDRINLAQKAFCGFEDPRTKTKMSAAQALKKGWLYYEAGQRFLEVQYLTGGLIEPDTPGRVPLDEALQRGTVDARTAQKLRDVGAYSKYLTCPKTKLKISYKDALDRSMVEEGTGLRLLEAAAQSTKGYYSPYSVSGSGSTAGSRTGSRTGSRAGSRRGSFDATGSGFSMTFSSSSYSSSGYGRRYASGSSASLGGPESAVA

B1: Pab2: anti-plectin-1 antibody; heavy chain variable region SEQ ID NO: 23, light chain variable region SEQ ID NO: 45 (antibody, V domains shown)
VH: EVQLVESGGDLVKPGGSLKLSCAASGFTFSRYGMSWVRQTPDKRLEWVATISIGGTYTYYPDSMKGRFTISRDNAKNTLYLQMSSLKSEDTAMYYCARRGYGNYSYYGMDYWGQGTSVTVSS
VL: DIVMTQAAFSNPVTLGTSASISCRSSKSLLHSNGITYLYWYLQKPGQSPQLLIYQMSNLASGVPDRFSSSGSGTDFTLRISRVEAEDVGVYYCAQNLELPLTFGAGTKLELK
- affinity among anti-plectin-1 antibodies tested: highest affinity
